Source: the supplement of paper PMC9170038

Test system: MS2 coat protein
Assay: apparent KD of MS2 coat protein; designed switch direction (-1 OFF switch, 1 ON switch): -1; higher = weaker reporter binding
Outline: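 On Illumina chips, designed RNA switches with common flanks were made by stalled E. coli RNA polymerase. Titrations with SNAP-549-labelled MS2 coat protein, doubling from 0.7 or 1.5 nM to 3 µM, were done with no input, with 200 uM small-molecule ligand, or with an oligonucleotide input. Apparent KD is the median per design over clusters, from curve fits of normalised cluster fluorescence.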

[1] = Eterna round: R95, input ligand: FMN 200 uM
[2] = Eterna round: R95, input ligand: microRNA oligo, concentration not stated
[3] = Eterna round: R95, input ligand: none
[4] = input ligand: microRNA oligo, concentration not stated

Row | Sequence | apparent KD of MS2 coat protein [1] | apparent KD of MS2 coat protein [2] | apparent KD of MS2 coat protein [3] | apparent KD of MS2 coat protein (input ligand: FMN 200 uM) | apparent KD of MS2 coat protein [4] | apparent KD of MS2 coat protein (input ligand: none)
1 | AGUACUAACACGCGUGUGUUAGUACAAUAAGCUUGUGAAACAUGAGGAUCACCCAUGUCCUCAUAAGCUCGUCUUAU [salish99_TOv2_r3_076] (puzzle: Sensor v3, turn-off variant 2) | 15.7 nM | 608 nM | 13.7 nM |  |  | 
2 | CUUUUGUGAGGAUAUUAGUAGUAAAUAAAUAAAUUUACUACUGAGAAGGCACAUGAGGAUCACCCAUGUUCCUC [salish99_ex4_r3_060] (Eterna round: R96, puzzle: Exclusion 4) |  |  |  | 703 nM | 38.5 nM | 40.9 nM
3 | CCGAAGCUAGGAUAUACAUGAGGAUCACCCAUGUAAUCUCAUUUACGGGUCGGGCGCAGUAGAAGGAGCAAAGU [EX3 B.17] (Eterna round: R97, puzzle: Exclusion 3) |  |  |  | 17.5 nM |  | 15.6 nM
4 | CGGUGCUGAGGAUAUACAUGAGGAUCACCCAUGUGUUCCAGCUAGCGUACUGGCAGGUGUAGAAGGCGGUACUG [JL-ex3-3.41 Brourd mod] (puzzle: Exclusion 3) | 68.7 nM | 18.7 nM | 20.1 nM |  |  | 
5 | GGUAUACAUGAGGAUCACCCAUGUCAGGAUAUGGUAUCCUGUGCCGAAAGGCACAGGUCCAGAAGGGACGAUAG [AK-MS2ROC-r4-exclusion1-5.2] (Eterna round: R97, puzzle: Exclusion 1) |  |  |  | 109 nM |  | 91.7 nM
6 | CAACGAUGAGGAUAUACAUGAGGAUCACCCAUGUGGUCCAGCAGCCAUUACGGCGAAGGUAGAAGGCGUUAUUA [Eternabot (L2) Solution 54] (Eterna round: R97, puzzle: Exclusion 3) |  |  |  | 349 nM |  | 386 nM
7 | GUGAAACAUGAGGAUCACCCAUGUGAGGAUAUGUUUUAGUACUGCUGACAGUACAUCUAUAGAAGGCACAAUGG [JL-ex1-02] (puzzle: Exclusion 1) |  | 33.7 nM |  |  |  | 
8 | CUGCGUAGAGGAUAUACAUGAGGAUCACCCAUGUGCUAAAUGACUGCAUGCAAAUCGUGUAGAAGGUUGAAGGG [Eternabot (L2) Solution 85] (Eterna round: R97, puzzle: Exclusion 3) |  |  |  | 34.6 nM |  | 40.4 nM
9 | UUAAAACAUGUAGGAUAUGCGUAGAAAAGCUAUGCAGAAGGACAUGAGGAUCACCCAUGUUCAACCAUCAACGUACAGAUGGAA (Eterna round: R96, puzzle: Exclusion NG 1) |  |  |  | 31.7 nM | 12.1 nM | 14.1 nM
10 | UUAAUUUAAGGGAUAGAUCAUUACAUGAGGAUCACCCAUGUUGAGGAUAUCAGCUCGUGUAGAGCUGAGAAGGCAACAAUAGGG [ExNG3/14-A3] (Eterna round: R96, puzzle: Exclusion NG 3) |  |  |  | 249 nM | 377 nM | 92.3 nM
11 | GUUUUGGGAGGAUAUAUGUGGAUAAUUUUUAUAUGAAAAUUACAUGAGGAUCACCCAUGUAGAAGGUCUAGAGC [-17.2, -15.1 kcal, 32% A] (Eterna round: R97, puzzle: Exclusion 2) |  |  |  | 473 nM |  | 637 nM
12 | UUACGUUUAGAGGAUAUAUUAAGGAAGGUAACGAUAGAAGGCUAGACAUGAGGAUCACCCAUGUAUAUAGGGAU [JR_Ex6_Sub071] (Eterna round: R97, puzzle: Exclusion 6) |  |  |  | 141 nM |  | 54 nM
13 | GAAAACGCAGAGGAUAUUCCAGAUCUAAGCUGCGAAGAAGGCUGCACAUGAGGAUCACCCAUGUGGUCUUUAAA [Maoned] (puzzle: Exclusion 6) | 121 nM | 12.3 nM | 14.9 nM |  |  | 
14 | CUAAAUCAUGUAGGAUAUGCGUGGCGAAGCUAUGCAGAAGGACAUGAGGAUCACCCAUGUGCUUCCGUCUGAGUACAGACGGAA [Mat - Exclusion NG 1 - Mod of JL - D25] (Eterna round: R96, puzzle: Exclusion NG 1) |  |  |  | 77.2 nM | 160 nM | 232 nM
15 | GUAAUGCUAGGAUAUCGACAAAUUUACAUGAGGAUCACCCAUGUGAACCCUGUGUGGUAACGAGAAGGAGUCAGCU [Eternabot (L2) Solution 54] (Eterna round: R97, puzzle: Exclusion 5) |  |  |  | 39.1 nM |  | 53.5 nM
16 | AGUCGGCGAGGAUAUACAUGAGGAUCACCCAUGUGAUAGAGUGCACGCGUACGUGUACGUAGAAGGCGCUGACA [Mat - Exclusion 3 - Mod of JL D95] (puzzle: Exclusion 3) |  | 12.6 nM |  |  |  | 
17 | UUGAAGUCAUCAGGAUAUAGUAUUAAAGACAUUUAUAUUUUCAAACAUGAGGAUCACCCAUGUCGCUAGAAGGGAUUAUAGAUU [JR_ExcNG2_Sub080] (Eterna round: R96, puzzle: Exclusion NG 2) |  |  |  |  | 36.6 nM | 

Row | Sequence | apparent KD of MS2 coat protein [1] | apparent KD of MS2 coat protein [2] | apparent KD of MS2 coat protein [3] | apparent KD of MS2 coat protein (input ligand: FMN 200 uM) | apparent KD of MS2 coat protein [4] | apparent KD of MS2 coat protein (input ligand: none)
18 | UACCCGUGAGGAUAUAGAGUCCUACACAUGAGGAUCACCCAUGUCAGCCUUAUCGUGGAUCUAGAAGGCAUAAACG [Eternabot (L1) Solution 88] (Eterna round: R97, puzzle: Exclusion 5) |  |  |  | 103 nM |  | 183 nM
19 | ACUUAUUGAGGAUAUACAUAGAUUUACAUGAGGAUCACCCAUGUUCCUCUAUGUAUAUAUGUAGAAGGCAGAAGAA [JL-ex5-4.32 Malcolm mod] (Eterna round: R97, puzzle: Exclusion 5) |  |  |  | 26.7 nM |  | 15.7 nM
20 | AGCGCGUUCUAGGAUAUCCGGUGGGACACAUACGGAGAAGGAGAAACAUGAGGAUCACCCAUGUAUGGAGAUCG [Eternabot (L1) Solution 7] (Eterna round: R97, puzzle: Exclusion 6) |  |  |  | 309 nM |  | 102 nM
21 | UUUUUUUUGCGAGGAUAUGCAUUUAGUUAGUUAGCAGAAGGCGCGUUUCUAUACUCCUCUUCUUACAUGAGGAUCACCCAUGUU [JR_ExcNG1_Sub033] (Eterna round: R96, puzzle: Exclusion NG 1) |  |  |  | 69.9 nM | 34.5 nM | 35.1 nM
22 | GCCGAAAGUGUGAGGAUAUACCUAUGGAAACAUAGGUAGAAGGCACAUGAGGAUCACCCAUGUGUCCAAACGGC [Mat - Exclusion 4 - Eli Mod - D23] (Eterna round: R97, puzzle: Brourd's mod of Exclusion 4) |  |  |  | 41.5 nM |  | 16.5 nM
23 | GUACUGACAGGAUAUACAUGAGGAUCACCCAUGUCCUUAGGCUGACAAAAGUCAGCAAGUAGAAGGGUCUGUAC [Omei Ex3 Model Bachelor's Dilema v3] (Eterna round: R97, puzzle: Exclusion 3) |  |  |  | 1500 nM |  | 85.5 nM
24 | AUGUGCACGCUGCGGUCCUACAUGAGGAUCACCCAUGUGGUCUGGUGGCGUGGGUCACCGGACUUGGCUCGUCUUGA [salish99_S_TOV1_R5_055] (Eterna round: R97, puzzle: Sensor, turn-off variant 1) |  |  |  | 56 nM |  | 51.9 nM
25 | GUACAUAUAGGAUAUACAUGAGGAUCACCCAUGUAAAUCGUUAGUUGGGAUUCUAAAAGUAGAAGGGUGGUGCG [Eternabot (L2) Solution 30] (Eterna round: R97, puzzle: Exclusion 3) |  |  |  | 27.6 nM |  | 27.4 nM
26 | AUAAUGUCAGGAUAUCAGUCGACUAGCUGCGGCUAGUCGACUGAGAAGGGACAUGAGGAUCACCCAUGUGUUUC [E4/14-A3] (Eterna round: R97, puzzle: Exclusion 4) |  |  |  | 475 nM |  | 367 nM
27 | ACCUUACAUGAGGAUCACCCAUGUCAGGAUAUCUCGGGCGGCUGAGGACCAGCCGCCCAGAGAAGGGACGAGGA [Leleusarra] (puzzle: Exclusion 1) |  | 12.5 nM |  |  |  | 
28 | AAGUACUACAAGCUUAGGGACAUGAGGAUCACCCAUGUUCGUCUUAUUGAUCUAGGUACGCUGACGUACCUAGAUCA [Mat - Sensor v3 - turn-off var 1 - JL Mod - D10] (puzzle: Sensor v3, turn-off variant 1) | 16.2 nM | 44.5 nM | 15.5 nM |  |  | 
29 | CCUCCCGCCGUCAGGAUAUGCCGUACCGCUGCGCUCCAGAAGGCACUUGAGGAUCACCCAAGUACCCGUGAGGC [salish99_bmod_ex4_r4_009] (Eterna round: R97, puzzle: Brourd's mod of Exclusion 4) |  |  |  | 16 nM |  | 16.1 nM
30 | ACAUGAGGAUCACCCAUGUAAACAUGAUGGCUGAUGUAGAGCUAGGAUAUGAGUGACUAUCUAUCUCAGAAGGAGCUUGACUGG [Deportation 45 - Jieux - Exclusion NG 3] (Eterna round: R96, puzzle: Exclusion NG 3) |  |  |  | 26 nM | 27.1 nM | 31.4 nM
31 | UUCGUACAGCUUUGCUGUACGCGUACAUGAGGAUCACCCAUGUAGGAUAUGGUAGGCAAAGCUUACUAGAAGGAUAGAGUGAUC [Mat - Exclusion NG 3 - Mod of JL - D75] (Eterna round: R96, puzzle: Exclusion NG 3) |  |  |  | 244 nM | 96.2 nM | 238 nM
32 | UAAUAAAGUGUGAGGAUAUGCUGGUCCUUGGAUCAGCAGAAGGCACAUGAGGAUCACCCAUGUAAUAUAUAAAU [Mat - Exclusion 4 - JL Mod - D55] (puzzle: Brourd's mod of Exclusion 4) |  | 70.4 nM |  |  |  | 
33 | GGAAGACAUGAGGAUCACCCAUGUAAGGAUAUCGAAGGUAAGAGAGGAAAGAAGGGAACGAGAAGGUACAGGUG [JR_Exclu1_Sub095] (puzzle: Exclusion 1) | 102 nM | 88.9 nM | 123 nM |  |  | 
